Laboratory results reported in paper PMC5131891, “Structural Insights into Streptococcal Competence Regulation by the Cell-to-Cell Communication System ComRS” (PLoS Pathogens, 2016).
Numbering of substitutions follows the chain as printed. Values joined by “and” are separate entries in the source; they are usually repeats but may differ in a detail not shown here. Equal entries are not always repeated. Where two headings read alike, the source gives them in different places. Blank lines part the entries; values can stand above or below the molecule they belong to. Peptide text beside a SMILES is read from it.

Experiments:
ComR WT [1] = target: ComR WT (Streptococcus thermophilus, UniProt A0A1L1QK15); experiment: biochemical; type: binding, Streptococcus thermophilus LMD-9; conditions: KD
Procedure: Purification of ComR-StreptagII proteins (StreptagII at C-terminus) was performed as described previously with some modifications. E. coli strain BL21 Gold cultures were grown in 2YT medium at 15°C until an OD600 of ~ 0.5, cooled down on ice for 10 minutes, and induced by addition of 0.2% of L-arabinose (wt vol^-1) before continuous shaking at 28°C for 4 h. Cells were then harvested by centrifugation (5,000 × g during 15 min at 8°C). The pellets were resuspended in cold buffer W (100 mM Tris-HCl pH 8.0, 150 mM NaCl, 1 mM EDTA) supplemented with 0.5 mg ml^−1 of lysozyme, incubated for 30 min at 4°C, and sonicated at 4°C. […] For structural and biophysical analyses, the purification protocol was completed by a size exclusion chromatography step using a HiLoad 16/600 Superdex 75 prep grade column (GE Healthcare) equilibrated in buffer W plus 10% (vol vol^-1) glycerol. Purified proteins were aliquoted, flash frozen and conserved at -20°C. Their purity was visualized by SDS-PAGE and their concentrations were measured using a Nanodrop apparatus (protein A280 method) (ThermoFisher Scientific).
Isothermal titration calorimetry (ITC) experiments were performed at 20°C in 20 mM Tris-HCl pH 8.0, 150 mM NaCl, 1 mM EDTA with an ITC200 calorimeter (Microcal). The protein concentration in the microcalorimeter cell and the peptide concentration in the syringe were set at 50 μM and 500 μM, respectively. A first injection of 0.4 μl, which was not taken into account for the fitting, was followed by 20 injections of 2 μl at intervals of 180 s. The peptide concentration used in the calculations is based on the weight of the lyophilized peptide and is therefore inaccurate because there may be a significant quantity of bound water, and salts or counter ions. However, the calculated number of binding sites, n, is always close to 1, in agreement with the 1:1 ratio observed in the crystal structure of the ternary complex. […] The data were analyzed using the MicroCal Origin software provided by the manufacturer. […] It was therefore not possible to distinguish the two events and the fitting was performed with the one-binding-site model. The calculated KD are therefore apparent values.

ComR K100A = ComR K100A (Streptococcus thermophilus, UniProt A0A1L1QK15, K100A); experiment: ITC, XIP binding on ComR K100A; design: species or system Streptococcus thermophilus LMD-9
Procedure: (§1) Purification of ComR-StreptagII proteins (StreptagII at C-terminus) was performed as described previously with some modifications. E. coli strain BL21 Gold cultures were grown in 2YT medium at 15°C until an OD600 of ~ 0.5, cooled down on ice for 10 minutes, and induced by addition of 0.2% of L-arabinose (wt vol^-1) before continuous shaking at 28°C for 4 h. Cells were then harvested by centrifugation (5,000 × g during 15 min at 8°C). The pellets were resuspended in cold buffer W (100 mM Tris-HCl pH 8.0, 150 mM NaCl, 1 mM EDTA) supplemented with 0.5 mg ml^−1 of lysozyme, incubated for 30 min at 4°C, and sonicated at 4°C. […] Their purity was visualized by SDS-PAGE and their concentrations were measured using a Nanodrop apparatus (protein A280 method) (ThermoFisher Scientific).
(§2) Isothermal titration calorimetry (ITC) experiments were performed at 20°C in 20 mM Tris-HCl pH 8.0, 150 mM NaCl, 1 mM EDTA with an ITC200 calorimeter (Microcal). […] The peptide concentration used in the calculations is based on the weight of the lyophilized peptide and is therefore inaccurate because there may be a significant quantity of bound water, and salts or counter ions. However, the calculated number of binding sites, n, is always close to 1, in agreement with the 1:1 ratio observed in the crystal structure of the ternary complex. […] The calculated KD are therefore apparent values.

ComR T90A = ComR T90A (Streptococcus thermophilus, UniProt A0A1L1QK15, T90A); experiment: ITC, XIP binding on ComR T90A; design: species or system Streptococcus thermophilus LMD-9
Procedure: as §1, §2

ComR Y91A = ComR Y91A (Streptococcus thermophilus, UniProt A0A1L1QK15, Y91A); experiment: ITC, XIP binding on ComR Y91A; design: species or system Streptococcus thermophilus LMD-9
Procedure: as §1, §2

ComR R92A = ComR R92A (Streptococcus thermophilus, UniProt A0A1L1QK15, R92A); experiment: ITC, XIP binding on ComR R92A; design: species or system Streptococcus thermophilus LMD-9
Procedure: as §1, §2

ComR F171A/Y174A = ComR F171A/Y174A (Streptococcus thermophilus, UniProt A0A1L1QK15, F171A/Y174A); experiment: ITC, XIP binding on ComR F171A/Y174A; design: species or system Streptococcus thermophilus LMD-9
Procedure: as §1, §2

ComR K87A/K246A [2] = target: ComR K87A/K246A (Streptococcus thermophilus, UniProt A0A1L1QK15, K246A/K87A); experiment: ITC, XIP binding on ComR K87A/K246A; design: species or system Streptococcus thermophilus LMD-9
Procedure: as §1, §2

ComR K87A/K246A [3] = target: ComR K87A/K246A (Streptococcus thermophilus, UniProt A0A1L1QK15, K87A/K246A); experiment: ITC, XIP binding on ComR K87A/K246A; design: species or system Streptococcus thermophilus LMD-9; conditions: ITC, ComR K87A/K246A
Procedure: as §1, §2

[4] = compared with heptapeptide 18–24; ref [30]; cited from earlier work
Procedure: The corresponding synthetic XIP peptide […] as well as the variants used in the functional analysis were supplied by GenScript or Peptide 2.0 (Chantilly, VA) and resuspended at a concentration of 50 mM in 50% DMSO / 50% protein stora ...

ComR WT [5] = target: T1, ComR WT (Streptococcus thermophilus LMD-9, UniProt PDB:5JUB_1 1-310); experiment: EMSA; XIP 0.2-1.2 uM; ComR 4 uM; EMSA: 20 mM Tris-HCl pH 8.0, 150 mM NaCl, 1 mM EDTA, 10% glycerol, 1 mg/ml BSA, 37 C 10 min, 40 ng DNA in 20 ul; crystal: 30% PEG 550 MME, 0.1 M MgCl2, 0.05 M Tris-HCl pH 8.5, 18 C; conditions: protein: recombinant; tags: C-terminal StreptagII; chain copies: 2; label: Cy3 (Methods: Alexa 555), direct strand; blunt
T1 sequence: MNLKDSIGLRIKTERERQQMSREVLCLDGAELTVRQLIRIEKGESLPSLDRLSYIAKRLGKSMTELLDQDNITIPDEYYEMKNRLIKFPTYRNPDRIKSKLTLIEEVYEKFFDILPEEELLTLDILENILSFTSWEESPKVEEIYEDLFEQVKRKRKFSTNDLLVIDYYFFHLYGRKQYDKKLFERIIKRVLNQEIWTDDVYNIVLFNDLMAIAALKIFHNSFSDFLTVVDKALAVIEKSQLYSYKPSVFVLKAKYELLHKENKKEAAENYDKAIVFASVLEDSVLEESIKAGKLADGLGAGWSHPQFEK

ComR K87A/K246A [6] = target: T2, ComR K87A/K246A (Streptococcus thermophilus LMD-9, UniProt PDB:5JUB_1 1-310, K87A;K246A); experiment: EMSA; XIP up to 1.2 uM; ComR 4 uM; EMSA: 20 mM Tris-HCl pH 8.0, 150 mM NaCl, 1 mM EDTA, 10% glycerol, 1 mg/ml BSA, 37 C 10 min, 40 ng DNA in 20 ul; crystal: 30% PEG 550 MME, 0.1 M MgCl2, 0.05 M Tris-HCl pH 8.5, 18 C; conditions: protein: recombinant; tags: C-terminal StreptagII; chain copies: 2; label: Cy3 (Methods: Alexa 555), direct strand; blunt
T2 sequence: T1 sequence with K87A, K246A

ComR E146A/D147A = target: T3, ComR E146A/D147A (Streptococcus thermophilus LMD-9, UniProt PDB:5JUB_1 1-310, E146A;D147A); experiment: EMSA; no XIP; ComR 4 uM; strong, multimeric complexes; EMSA: 20 mM Tris-HCl pH 8.0, 150 mM NaCl, 1 mM EDTA, 10% glycerol, 1 mg/ml BSA, 37 C 10 min, 40 ng DNA in 20 ul; crystal: 30% PEG 550 MME, 0.1 M MgCl2, 0.05 M Tris-HCl pH 8.5, 18 C; conditions: protein: recombinant; tags: C-terminal StreptagII; chain copies: 2; label: Cy3 (Methods: Alexa 555), direct strand; blunt
T3 sequence: T1 sequence with E146A, D147A

[7] = target: ComR F171A/Y174A (ComR-StreptagII double mutant) (Streptococcus thermophilus LMD-9); experiment: ITC; peptide 500 μM in the syringe, ComR 50 μM in the cell; 20°C; 20 mM Tris-HCl pH 8.0, 150 mM NaCl, 1 mM EDTA; one-binding-site model; apparent KD (peptide binding and dimerization not told apart)
[8] = target: ComR K100A (ComR-StreptagII mutant) (Streptococcus thermophilus LMD-9); experiment: as above
[9] = target: ComR K87A/K246A (ComR-StreptagII double mutant) (Streptococcus thermophilus LMD-9); experiment: as above
[10] = target: ComR R92A (ComR-StreptagII mutant) (Streptococcus thermophilus LMD-9); experiment: as above
[11] = target: ComR T90A (ComR-StreptagII mutant) (Streptococcus thermophilus LMD-9); experiment: as above
[12] = target: ComR Y91A (ComR-StreptagII mutant) (Streptococcus thermophilus LMD-9); experiment: as above
[13] = target: ComR from Streptococcus thermophilus LMD-9 (ComR-StreptagII, wild type) (Streptococcus thermophilus LMD-9); experiment: as above
[14] = target: ComR from Streptococcus thermophilus LMD-9 (ComR-StreptagII, wild type) (Streptococcus thermophilus LMD-9); experiment: as above; remark: listed apart in the source
ComR WT [15] = target: T1, ComR WT; experiment: X-ray crystallography; XIP (LPYFAGCL); 0.1 M MgCl2 in crystallization; EMSA: 20 mM Tris-HCl pH 8.0, 150 mM NaCl, 1 mM EDTA, 10% glycerol, 1 mg/ml BSA, 37 C 10 min, 40 ng DNA in 20 ul; crystal: 30% PEG 550 MME, 0.1 M MgCl2, 0.05 M Tris-HCl pH 8.5, 18 C; conditions: protein: recombinant; tags: C-terminal StreptagII; chain copies: 2; blunt

Molecule: CC(C)C[C@H](NC(=O)[C@H](CS)NC(=O)CNC(=O)[C@H](C)NC(=O)[C@H](Cc1ccccc1)NC(=O)[C@H](Cc1ccc(O)cc1)NC(=O)[C@@H]1CCCN1C(=O)[C@@H](N)CC(C)C)C(=O)O [XIP] (H-LPYFAGCL-OH)
Kd (ComR WT [1]): 10 nM and 8 nM
Kd (ComR K100A): 1170 ± 245 nM
Kd (ComR T90A): 244 ± 108 nM
Kd (ComR Y91A): 141 ± 33 nM
KD value in words (ComR Y91A; ITC, ComR Y91A): same order of magnitude than observed with T90A mutant
Kd (ComR R92A): 277 ± 23 nM
affinity in words (ComR R92A; ITC, ComR R92A): decreased affinity for XIP
Kd (ComR F171A/Y174A): 87 ± 9 nM
Kd (ComR K87A/K246A [2]): 9 ± 3 nM
affinity in words (ComR K87A/K246A [3]): did not affect the affinity of ComR for the XIP peptide
stability [4]: more stable

B1: Cy3-boxPster_1655 wt (40 bp) (dsDNA)
DNA 1: CAAAATCGAGTAGTGACATTTATGTCACTACTTTTTTGTT
DNA 2: AACAAAAAAGTAGTGACATAAATGTCACTACTCGATTTTG
binding result (ComR WT [5]): binds
binding result (ComR K87A/K246A [6]): no binding
binding result (ComR E146A/D147A): binds

Kd [7]: 87 nM
stoichiometry N [7]: 1.1
Kd [8]: 1180 nM
stoichiometry N [8]: 0.8
Kd [9]: 9 nM
stoichiometry N [9]: 0.8
Kd [10]: 277 nM
stoichiometry N [10]: 1.2
Kd [11]: 244 nM
stoichiometry N [11]: 0.7
Kd [12]: 141 nM
stoichiometry N [12]: 0.9
Kd [13]: 10 nM
stoichiometry N [13]: 0.8
Kd [14]: 8 nM
stoichiometry N [14]: 1.1
Molecule: LPYFAGCL [XIP octapeptide (ComS 17-24, LPYFAGCL) from Streptococcus thermophilus LMD-9]

B2: PcomX ComR-box (20 bp) (dsDNA)
DNA 1: TAGTGACATATATGTCTCTA
DNA 2: TAGAGACATATATGTCACTA
binding result (ComR WT [15]): binds
